# B1: Neural Precursor Cell Expressed Developmentally Down-Regulated Protein 4 polypeptide (NEDD4-1) (protein)
# chain: MATCAVEVFGLLEDEENSRIVRVRVIAGIGLAKKDILGASDPYVRVTLYDPMNGVLTSVQTKTIKKSLNPKWNEEILFRVHPQQHRLLFEVFDENRLTRDDFLGQVDVPLYPLPTENPRLERPYTFKDFVLHPRSHKSRVKGYLRLKMTYLPKTSGSEDDNAEQAEELEPGWVVLDQPDAACHLQQQQEPSPLPPGWEERQDILGRTYYVNHESRRTQWKRPTPQDNLTDAENGNIQLQAQRAFTTRRQISEETESVDNRESSENWEIIREDEATMYSNQAFPSPPPSSNLDVPTHLAEELNARLTIFGNSAVSQPASSSNHSSRRGSLQAYTFEEQPTLPVLLPTSSGLPPGWEEKQDERGRSYYVDHNSRTTTWTKPTVQATVETSQLTSSQSSAGPQSQASTSDSGQQVTQPSEIEQGFLPKGWEVRHAPNGRPFFIDHNTKTTTWEDPRLKIPAHLRGKTSLDTSNDLGPLPPGWEERTHTDGRIFYINHNIKRTQWEDPRLENVAITGPAVPYSRDYKRKYEFFRRKLKKQNDIPNKFEMKLRRATVLEDSYRRIMGVKRADFLKARLWIEFDGEKGLDYGGVAREWFFLISKEMFNPYYGLFEYSATDNYTLQINPNSGLCNEDHLSYFKFIGRVAGMAVYHGKLLDGFFIRPFYKMMLHKPITLHDMESVDSEYYNSLRWILENDPTELDLRFIIDEELFGQTHQHELKNGGSEIVVTNKNKKEYIYLVIQWRFVNRIQKQMAAFKEGFFELIPQDLIKIFDENELELLMCGLGDVDVNDWREHTKYKNGYSANHQVIQWFWKAVLMMDSEKRIRLLQFVTGTSRVPMNGFAELYGSNGPQSFTVEQWGTPEKLPRAHTCFNRLDLPPYESFEELWDKLQMAIENTQGFDGVD
# Target: Flag-PTEN
protein,measurement,value
B1,"in vitro ubiquitination of Flag-PTEN (E1, E2, ubiquitin; western blot with anti-PTEN antibody), NEDD4-1 alone",incubation of purified NEDD4-1 alone could not efficiently promote PTEN K27-linked poly-ubiquitination
same,"in vitro ubiquitination of Flag-PTEN, WWP1 and NEDD4-1 both present","in the presence of both WWP1 and NEDD4-1, PTEN was robustly K27-linked poly-ubiquitinated"

# From patent publication US20190374506
